This is an account of results in publication PMC6116569, “Activity of Vsr endonucleases encoded by Neisseria gonorrhoeae FA1090 is influenced by MutL and MutS proteins” (BMC Microbiology, 2018).

Series [1] deals with MutS (Neisseria gonorrhoeae FA1090). Nature of the series: EMSA. Conditions: 0.75 uM protein, 1 mM ATP, 10 mM Ca2+, 10 mM Tris-HCl pH 7.5, 10 mM CaCl2, 0.1 mg/ml BSA, 0.15 uM substrate DNA, 0.032 uM competitor DNA, 20 ul, temperature not stated, 5% PAGE with …. Background: Mobility shift assays separate free from complexed probe on a gel.
For series [2], the target named is T1, MutL protein of N. gonorrhoeae FA1090, two-hybrid fusion (mutLNgo gene in pC434, plasmid pAK26) (N. gonorrhoeae FA1090, UniProt Q5F8M6 1-658).
T1 construct: MutL of Neisseria gonorrhoeae FA1090; mutLNgo gene (1977 bp) amplified from chromosomal DNA and cloned into the SalI-BamHI sites of pC434; also called gonococcal MutL protein; source: bacterial two-hybrid fusion, expressed in E. coli R721; not shown: N-terminal domain of the repressor of phage 434 (from the vector pC434), N-terminal, kept
T1 sequence (looked up): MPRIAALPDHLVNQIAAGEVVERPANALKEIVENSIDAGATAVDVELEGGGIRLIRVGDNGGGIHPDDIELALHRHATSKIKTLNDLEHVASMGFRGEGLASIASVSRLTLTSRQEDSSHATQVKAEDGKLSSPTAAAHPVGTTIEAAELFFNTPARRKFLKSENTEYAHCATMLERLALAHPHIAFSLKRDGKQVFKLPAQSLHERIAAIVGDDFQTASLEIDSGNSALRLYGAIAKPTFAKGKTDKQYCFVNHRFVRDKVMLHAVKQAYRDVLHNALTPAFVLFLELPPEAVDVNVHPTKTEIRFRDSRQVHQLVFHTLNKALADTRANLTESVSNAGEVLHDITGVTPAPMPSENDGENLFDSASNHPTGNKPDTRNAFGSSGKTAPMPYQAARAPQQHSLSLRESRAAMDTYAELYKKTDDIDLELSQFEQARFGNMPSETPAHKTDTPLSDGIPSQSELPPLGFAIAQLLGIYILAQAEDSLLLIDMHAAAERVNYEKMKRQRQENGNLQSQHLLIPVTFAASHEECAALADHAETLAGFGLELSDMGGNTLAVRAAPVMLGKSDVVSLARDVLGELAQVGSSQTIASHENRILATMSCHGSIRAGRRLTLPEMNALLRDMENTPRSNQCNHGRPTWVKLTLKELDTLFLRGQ
The series can be described thus: two-hybrid; bacterial two-hybrid system (Di Lallo et al.) in E. coli R721 with lacZ as reporter: fusions to the N-terminal domains of the phage P22 and 434 repressors; an interaction represses β-galactosidase; LB with 0.1 mM IPTG, 37 °C; read-out is the ratio of Miller Units to the plasmid-less strain, a ratio below 0.5 counts as interaction. Conditions: partners not purified.

The target in series [3] is V.NgoAXIII endonuclease, two-hybrid fusion (ngoAXIIIV gene in pC22, plasmid pAK24) (N. gonorrhoeae FA1090). The description is as above.
Series [4] addresses V.NgoAXIV endonuclease, two-hybrid fusion (ngoAXIVV gene in pC22, plasmid pAK25) (N. gonorrhoeae FA1090). The description is as above.
In series [5] the target is T2, MutS protein of N. gonorrhoeae FA1090, His-tagged, purified (plasmid pAK21) (N. gonorrhoeae FA1090, UniProt Q5F5J4 1-864).
T2 construct: MutS of Neisseria gonorrhoeae FA1090; mutS gene (2595 bp) amplified from chromosomal DNA with primers MutSNheI/MutSNgoR and cloned into the NheI-HindIII sites of pET28a(+); The His-Tag at the amino terminus is encoded by the vector; also called gonococcal MutS protein; source: E. coli BL21(DE3)pLys (pAK21), autoinduction, purified (Ni-NTA Agarose); not shown: His-Tag, N-terminal, kept
T2 sequence (looked up): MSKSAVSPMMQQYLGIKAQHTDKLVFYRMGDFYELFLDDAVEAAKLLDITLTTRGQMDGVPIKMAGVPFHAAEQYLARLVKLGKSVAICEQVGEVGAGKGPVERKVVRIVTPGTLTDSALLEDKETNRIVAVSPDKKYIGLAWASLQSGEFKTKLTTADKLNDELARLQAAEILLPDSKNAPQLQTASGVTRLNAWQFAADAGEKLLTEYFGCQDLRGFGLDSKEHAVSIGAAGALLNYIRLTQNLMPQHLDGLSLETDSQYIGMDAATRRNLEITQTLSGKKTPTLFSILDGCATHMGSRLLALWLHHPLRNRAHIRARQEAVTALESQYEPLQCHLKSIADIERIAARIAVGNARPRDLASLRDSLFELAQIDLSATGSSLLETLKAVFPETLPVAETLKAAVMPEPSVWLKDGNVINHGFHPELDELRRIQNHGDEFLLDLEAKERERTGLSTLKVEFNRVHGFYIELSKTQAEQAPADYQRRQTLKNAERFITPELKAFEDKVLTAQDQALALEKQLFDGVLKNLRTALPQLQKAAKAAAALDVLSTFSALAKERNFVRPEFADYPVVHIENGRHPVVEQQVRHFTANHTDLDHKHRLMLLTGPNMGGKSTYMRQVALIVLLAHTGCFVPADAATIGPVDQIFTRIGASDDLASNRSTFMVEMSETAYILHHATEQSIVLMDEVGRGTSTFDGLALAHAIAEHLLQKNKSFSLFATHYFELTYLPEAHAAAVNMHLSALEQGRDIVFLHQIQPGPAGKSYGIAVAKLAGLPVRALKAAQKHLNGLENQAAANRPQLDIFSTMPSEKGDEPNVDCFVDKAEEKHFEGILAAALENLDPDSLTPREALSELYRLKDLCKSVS
Nature of the series: pull-down; protein affinity chromatography: 250 μg V.NgoAXIII, V.NgoAXIV or MutLNgo coupled to Affi-Gel 10; 250 μg His-tagged MutLNgo or MutS applied in 25 mM Tris pH 7.5, 50 mM NaCl with 2 mM ATP and 5 mM MgCl2; washed with the same buffer, eluted with 250 mM NaCl; fractions blotted with an anti-His-Tag antibody. Conditions: both partners purified.

As to “T:G mismatch substrate used with MutS (M.NgoA302P-sub or M.NgoA1175P-sub, not specified)”, in series [1], the binding signal was determined as 90 % bound.

B1: MutS protein of N. gonorrhoeae FA1090, two-hybrid fusion used with the MutLNgo fusion (plasmid pAK27) (natural protein, UniProt Q5F5J4 1-864, looked up)
chain: T2 sequence (looked up)
notes: MutS of Neisseria gonorrhoeae FA1090; mutS gene (2595 bp) amplified from chromosomal DNA and cloned into the SalI-BamHI sites of pC434 and pC22; That pAK27 is the pC22 derivative is inferred: it was paired with the pC434-borne mutLNgo gene; also called gonococcal MutS protein; source: bacterial two-hybrid fusion, expressed in E. coli R721; not shown: N-terminal domain of the repressor of phage …
For B1, the “ratio of Miller Units (β-galactosidase activity) to the plasmid-less strain” value in series [2] was 0.39 ± 0.01.

B2: MutL protein of N. gonorrhoeae FA1090, two-hybrid fusion (mutLNgo gene in pC434, plasmid pAK26) (natural protein)
chain: T1 sequence (looked up)
With B2, the ratio of Miller Units (β-galactosidase activity) to the plasmid-less strain turned out to be 0.18 in series [3] and 0.23 in series [4].

B3: MutL protein of N. gonorrhoeae FA1090, His-tagged, purified (plasmid pAK20) (natural protein, UniProt Q5F8M6 1-658, looked up)
chain: T1 sequence (looked up)
notes: MutL of Neisseria gonorrhoeae FA1090; mutLNgo gene (1977 bp) amplified from chromosomal DNA with primers MutLfor/MutLNgoR and cloned into the NheI-HindIII sites of pET28a(+); The His-Tag at the amino terminus is encoded by the vector; also called MutLNgo; gonococcal MutL protein; source: E. coli BL21(DE3)pLys (pAK20), autoinduction, purified (Ni-NTA Agarose); not shown: His-Tag, N-terminal, kept
With B3, the binding result in series [5] was “binds”.
